According to US8709741B2, “Methods of diagnosing a plasmodium infection” (priority 2009, dated 2014):
“Also recorded” adds a separate entry of the source. Read-outs that look alike come from different tables or passages of the source.

B1: III: recombinant human group III secreted phospholipase A2 (protein, UniProt Q9NZ20 20-509, looked up)
Group 3 secretory …: GSPALRWYRTSCHLTKAVPGNPLGYLSFLAKDAQGLALIHARWDAHRRLQSCSWEDEPELTAAYGALCAHETAWGSFIHTPGPELQRALATLQSQWEACRALEESPAGARKKRAAGQSGVPGGGHQREKRGWTMPGTLWCGVGDSAGNSSELGVFQGPDLCCREHDRCPQNISPLQYNYGIRNYRFHTISHCDCDTRFQQCLQNQHDSISDIVGVAFFNVLEIPCFVLEEQEACVAWYWWGGCRMYGTVPLARLQPRTFYNASWSSRATSPTPSSRSPAPPKPRQKQHLRKGPPHQKGSKRPSKANTTALQDPMVSPRLDVAPTGLQGPQGGLKPQGARWVCRSFRRHLDQCEHQIGPREIEFQLLNSAQEPLFHCNCTRRLARFLRLHSPPEVTNMLWELLGTTCFKLAPPLDCVEGKNCSRDPRAIRVSARHLRRLQQRRHQLQDKGTDERQPWPSEPLRGPMSFYNQCLQLTQAARRPDRQQKSWSQ
B2: XIIB: recombinant human group XIIB sPLA2-like protein (protein, UniProt Q9BX93 20-195, looked up)
Group XIIB secretory …: QSDTSPDTEESYSDWGLRHLRGSFESVNSYFDSFLELLGGKNGVCQYRCRYGKAPMPRPGYKPQEPNGCGSYFLGLKVPESMDLGIPAMTKCCNQLDVCYDTCGANKYRCDAKFRWCLHSICSDLKRSLGFVSKVEAACDSLVDTVFNTVWTLGCRPFMNSQRAACICAEEEKEEL
B3: IIE: recombinant human group IIE secreted phospholipase A2 (protein, UniProt Q9NZK7 20-142, looked up)
Group IIE secretory …: NLVQFGVMIEKMTGKSALQYNDYGCYCGIGGSHWPVDQTDWCCHAHDCCYGRLEKLGCEPKLEKYLFSVSERGIFCAGRTTCQRLTCECDKRAALCFRRNLGTYNRKYAHYPNKLCTGPTPPC
B4: V: recombinant human group V secreted phospholipase A2 (protein, UniProt P39877 21-138, looked up)
Phospholipase A2 group V: GLLDLKSMIEKVTGKNALTNYGFYGCYCGWGGRGTPKDGTDWCCWAHDHCYGRLEEKGCNIRTQSYKYRFAWGVVTCEPGPFCHVNLCACDRKLVYCLKRNLRSYNPQYQYFPNILCS
B5: XIIA: recombinant human group XIIA secreted phospholipase A2 (protein, UniProt Q9BZM1 23-189, looked up)
Group XIIA secretory …: QEQAQTTDWRATLKTIRNGVHKIDTYLNAALDLLGGEDGLCQYKCSDGSKPFPRYGYKPSPPNGCGSPLFGVHLNIGIPSLTKCCNQHDRCYETCGKSKNDCDEEFQYCLSKICRDVQKTLGLTQHVQACETTVELLFDSVIHLGCKPYLDSQRAACRCHYEEKTDL
B6: IIF: recombinant human group IIF secreted phospholipase A2, full length (protein, UniProt Q9BZM2 21-168, looked up)
Group IIF secretory …: SLLNLKAMVEAVTGRSAILSFVGYGCYCGLGGRGQPKDEVDWCCHAHDCCYQELFDQGCHPYVDHYDHTIENNTEIVCSDLNKTECDKQTCMCDKNMVLCLMNQTYREEYRGFLNVYCQGPTPNCSIYEPPPEEVTCSHQSPAPPAPP
B7: IIA: recombinant human group IIA secreted phospholipase A2 (inflammatory type) (protein, UniProt P14555 21-144, looked up)
Phospholipase A2, membrane …: NLVNFHRMIKLTTGKEAALSYGFYGCHCGVGGRGSPKDATDRCCVTHDCCYKRLEKRGCGTKFLSYKFSNSGSRITCAKQDSCRSQLCECDKAAATCFARNKTTYNKKYQYYSNKHCRGSTPRC

How the values were obtained:
[1] = tested on: P. falciparum FcB1/Colombian strain; experiment: Anti-Plasmodium activity assay (dose-response, 3H-hypoxanthine incorporation), culture with human serum; assay type: cell-based; settings: for inhibition of P. falciparum development in vitro: standard P. falciparum cultures with serum
Description: (§1) The chloroquine-resistant P. falciparum FcB1/Colombian strain was used. Under the following culture conditions, the in vitro life cycle of the FcB1 strain was 48 hours. Cultures were grown in complete medium consisting of RPMI 1640 (Life Technologies, Inc.) supplemented with 11 mM glucose, 27.5 mM NaHCO3, 100 UI/mL penicillin, 100 μg/mL streptomycin, adjusted to pH 7.4 before addition of heat-inactivated human serum (A+ blood group, 8% final) or Albumax II® (0.5% final), according to the procedure of Trager and Jensen (1976). Parasites were routinely grown at 37° C. in human A+ RBCs (Red blood cells) at a 2% haematocrit and 2-6% parasitemia, in a 3% CO2, 6% O2 and 91% N2 atmosphere. Semi-synchronized cultures were established by Sorbitol (Lambros) treatment. Highly synchronized cultures (4 hour-window synchronization) were obtained by successive Plamion (Pasvol) and Sorbitol treatments. Parasitaemia and stage distribution were determined by optical examination of Diff-Quick stained culture smears. Parasitaemia (expressed in percent) is hundred times the number of parasitized erythrocytes divided by the total number of erythrocytes.
Dried preparations of the purified recombinant human sPLA2s were re-suspended at high concentration (usually 50 μM) in RPMI 0.05% BSA, and then tested individually for their capacity to inhibit the in vitro intra-erythrocytic development of P. falciparum. Dose-response assays based on ^3H-hypoxanthine incorporation by growing parasites were performed as in Guillaume et al. (2004). Radioactivity was measured with a 1450 Microbeta counter (Wallac, Perkin Elmer). Percentage of growth inhibition was calculated from the parasite-associated radioactivity compared with control without sPLA2. Values for the IC50 were determined from dose-response curves.

[2] = Rosengren et al., 2006; cited from earlier work
[3] = Specific activities of sPLA2s on human plasma (NEFA release, NEFA-C kit); assay type: biochemical; settings: for Specific activity ± SD (μmol NEFA/min × mg enzyme): whole human plasma, 37° C., linear part of kinetic curve, mean of three experiments
Description: Kinetic analysis of human plasma hydrolysis by sPLA2s was performed by mixing on ice 50 μL of crude plasma with recombinant sPLA2s at various final concentrations (respectively 2×, 5× and 10× the IC50 value). At time zero, the mixture was transferred to 37° C. Samples (7 μL) were taken after 5, 15, 30 and 60 minutes of incubation and quickly frozen at −20° C. An aliquot of plasma without enzyme was similarly processed. Concentration of non-esterified fatty acids (NEFAs) in each sample was measured by a discontinuous enzymatic method using the NEFA-C test kit from WAKO, following manufacturer's instructions. The amount of NEFAs in each enzyme-containing plasma sample was subtracted for NEFAs in enzyme-free plasma sample. Specific activity for each of the sPLA2s was determined from the linear part of the curve [NEFA]=f(t). Experiment was repeated three times with plasmas from different donors and different batches of sPLA2s.
Specific activities of sPLA2s on human plasma. Hydrolysis of plasma phospholipids by human and venom sPLA2s was assayed using different incubation times and enzymes concentrations. Hydrolysis was assessed by measuring the amount of NEFAs in samples using the colorimetric assay developed by WAKO (NEFA-C kit). Enzymatic production of NEFAs was corrected for endogenous production of NEFAs measured in the absence of sPLA2. Specific activity for each of the sPLA2s was determined from the linear part of the kinetic curve. Values are the mean of three independent experiments. SD: standard deviation. Anti-P. falciparum activities (IC50) of the respective sPLA2s are given for comparison.

P. falciparum = experiment: Anti-Plasmodium activity assay in Albumax II (serum substitute); assay type: cell-based; settings: Albumax II instead of serum
Description: as §1, with “Highly synchronized cultures (4 hour-window synchronization) were obtained by successive Plamion (Pasvol) and Sorbitol treatments.” left out, “Parasitaemia (expressed in percent) is hundred times the number of parasitized erythrocytes divided by the total number of erythrocytes.” left out
Dried preparations of the purified recombinant human sPLA2s were re-suspended at high concentration (usually 50 μM) in RPMI 0.05% BSA, and then tested individually for their capacity to inhibit the in vitro intra-erythrocytic development of P. falciparum. […] Radioactivity was measured with a 1450 Microbeta counter (Wallac, Perkin Elmer). Percentage of growth inhibition was calculated from the parasite-associated radioactivity compared with control without sPLA2. Values for the IC50 were determined from dose-response curves. […]

[4] = Enzymatic hydrolysis of purified lipoproteins (NEFA); assay type: biochemical, human; settings: 15 h at 37° C.
Description: CM/VLDL, LDL and HDL were purified from human plasma and used either fresh (F) or after minimal oxidization by air and light (Ox). After phospholipid content determination, plasma, LDL and HDL were adjusted to 1.6 mg PL/mL final concentration in PBS calcium. Because low amount was available, the CM/VLDL fraction was adjusted to 1.0 mg PL/mL. Each sample was incubated for 15 hours at 37° C., alone or in the presence of recombinant human GX sPLA2 (hGX PLA2; 25 nM), recombinant human GIIF sPLA2 (hGIIF PLA2; 125 nM), bee venom sPLA2 (bvPLA2; 0.18 nM) and Naja mossambica mossambica venom sPLA2 (Naja PLA2; 0.05 nM). NEFAs were quantified using the NEFA-C kit (WAKO). Values are the mean±SD of triplicate measurements. They were normalized by subtracting NEFA amount in the absence of enzyme. Two independent experiments with lipoproteins from different plasmas were performed, which gave similar qualitative results. Results from one experiment are shown;
Plasma and purified LDL and HDL were adjusted to 1.67 mg phospholipid (PL)/mL final concentration in PBS. Because purification yielded low amount of CM/VLDL, the CM/VLDL fraction was adjusted to 1.00 mg PL/mL. CaCl2 (1 mM final) was added to the lipoprotein fractions. 200 μL of each fraction were deposited in a 96-well plate and incubated for 15 hours at 37° C., alone or in the presence of recombinant human GX sPLA2 (hGX PLA2, 25.0 nM), recombinant human GIIF sPLA2 (hGIIF PLA2, 125.0 nM), bee venom sPLA2 (bvPLA2, 0.18 nM) and Naja mossambica mossambica venom sPLA2 (Naja PLA2, 0.05 nM). NEFAs were measured in triplicate using the NEFA-C kit (WAKO). Value from each fraction was normalized by subtracting the NEFA amount in the corresponding fraction without enzyme. Two independent experiments with lipoproteins from different plasmas were performed, which gave similar qualitative results. According to the experiment, maximum hydrolysis reached 50% or 65% of total PLs in the fraction. […]

[5] = culture in human red blood cells and serum, mean of independent dose-response assays, read-out: IC50 ± SD (anti-P. falciparum activity)
[6] = Table II, read-out: IC50 (nM), anti-P. falciparum activity given for comparison

| Molecule | IC50 [1, 5] | inhibition of P. falciparum development in vitro [1] | further results |
| --- | --- | --- | --- |
| IID: recombinant human group IID secreted phospholipase A2 | > 250 nM | non-toxic | – |
| IB: recombinant human group IB secreted phospholipase A2 | > 1250 nM | non-toxic | – |
| B1 | – | non-toxic | – |
| B2 | > 250 nM | non-toxic | – |
| B3 | > 250 nM | non-toxic | – |
| B4 | 162 ± 90.9 nM | active against P. falciparum | hydrolysis of serum [2]: found active; IC50 [1, 6]: 162 ± 90.9 nM; Specific activity ± SD (μmol NEFA/min × mg enzyme) [3]: 0.33 ± 0.09 μmol NEFA/min × mg enzyme |
| B5 | > 250 nM | non-toxic | – |
| B6 | 14.3 ± 10.4 nM | active against P. falciparum | increase of IC50 value in Albumax II relative to its value in serum (P. falciparum): approximately 17.5 fold; IC50 [1, 6]: 14.3 ± 13.4 nM; Specific activity ± SD (μmol NEFA/min × mg enzyme) [3]: 0.92 ± 0.30 μmol NEFA/min × mg enzyme; hydrolysis of triglyceride-rich lipoproteins (CM/VLDL) ([4]; 125 nM): hydrolysed poorly; preferential order of lipoprotein hydrolysis ([4]; each sPLA2 at approximately 10×IC50): same preferential order than GX sPLA2 |
| B7 | > 1250 nM | – | hydrolysis of serum [2]: found inactive; inhibition of P. falciparum development in vitro ([1]; listed as GIIA): non-toxic; inhibition of P. falciparum development in vitro ([1]; listed as GIIA sPLA2): clearly inactive; also recorded: does not exhibit any inhibitory activity; hydrolysis of plasma ([3]; high concentration (1 μM), not shown): inefficient at hydrolysing plasma |
